Data as given in US8409577.

Molecular target: T1, CD20 (human) (UniProt P11836)
T1 sequence (looked up): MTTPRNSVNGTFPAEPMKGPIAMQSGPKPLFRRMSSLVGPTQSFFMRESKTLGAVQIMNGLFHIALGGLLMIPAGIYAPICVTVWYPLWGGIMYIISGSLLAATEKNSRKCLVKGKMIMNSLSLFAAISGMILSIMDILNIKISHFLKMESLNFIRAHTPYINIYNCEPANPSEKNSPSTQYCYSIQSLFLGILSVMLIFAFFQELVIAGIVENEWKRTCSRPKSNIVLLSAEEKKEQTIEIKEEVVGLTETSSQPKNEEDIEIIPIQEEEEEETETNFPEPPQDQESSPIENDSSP
Assay: competition, flow cytometry on Ramos B cells; competitor PE-labeled monoclonal anti-CD20 antibody 3 ug/ml

IC50 (read off the curve): 4 nM
Substance: CD20×CD37 bispecific scorpion (015×016) (bispecific antibody)
